Results reported in publication PMC9487752, “Novel mycoplasma nucleomodulin MbovP475 decreased cell viability by regulating expression of CRYAB and MCF2L2”.

Legend:
Test in all cases: Southwestern blot; no change vs WT; EMSA: LightShift kit binding buffer, 20 min, room temperature, 5% native PAGE; Southwestern: 2 ug protein on nitrocellulose renatured in TNED buffer, 20 pmol biotin DNA, 12 h, room temperature; SPR: Biacore, NTA chip (~100 RU protein), buffer not given
Details in all cases: protein: recombinant; tags: His (pET-30a); label: 5'-C6-biotin (both oligos by primer name); blunt
rMbovP475-265NQ266 = target: T1, rMbovP475-265NQ266 (Mycoplasma bovis HB0801, UniProt A0A454AQS7 1-368, N265A;Q266A)
T1 sequence: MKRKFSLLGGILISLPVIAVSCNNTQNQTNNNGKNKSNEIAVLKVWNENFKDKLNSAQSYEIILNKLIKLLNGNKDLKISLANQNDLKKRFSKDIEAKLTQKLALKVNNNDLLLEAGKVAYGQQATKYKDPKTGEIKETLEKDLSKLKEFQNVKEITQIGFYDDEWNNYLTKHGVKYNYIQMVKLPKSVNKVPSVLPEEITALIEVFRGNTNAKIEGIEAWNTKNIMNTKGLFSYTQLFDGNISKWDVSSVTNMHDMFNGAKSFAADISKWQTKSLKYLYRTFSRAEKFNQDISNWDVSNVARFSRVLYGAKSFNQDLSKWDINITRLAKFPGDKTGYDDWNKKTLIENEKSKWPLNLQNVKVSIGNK

MbovP475∆DB3 = target: T2, MbovP475∆DB3 (Mycoplasma bovis HB0801, UniProt A0A454AQS7 1-338)
T2 sequence: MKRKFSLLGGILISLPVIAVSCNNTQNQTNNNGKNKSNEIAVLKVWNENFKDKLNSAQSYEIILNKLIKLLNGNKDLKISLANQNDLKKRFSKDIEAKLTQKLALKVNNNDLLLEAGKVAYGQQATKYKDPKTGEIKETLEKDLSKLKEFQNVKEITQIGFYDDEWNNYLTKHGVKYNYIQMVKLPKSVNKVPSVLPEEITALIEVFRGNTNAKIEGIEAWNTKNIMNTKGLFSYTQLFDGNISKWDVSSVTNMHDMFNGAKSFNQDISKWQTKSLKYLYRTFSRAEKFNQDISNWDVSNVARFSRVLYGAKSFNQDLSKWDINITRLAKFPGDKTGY

MbovP475∆DB2 = target: T3, MbovP475∆DB2 (Mycoplasma bovis HB0801, UniProt A0A454AQS7 1-298+333-368, internal_change)
T3 sequence: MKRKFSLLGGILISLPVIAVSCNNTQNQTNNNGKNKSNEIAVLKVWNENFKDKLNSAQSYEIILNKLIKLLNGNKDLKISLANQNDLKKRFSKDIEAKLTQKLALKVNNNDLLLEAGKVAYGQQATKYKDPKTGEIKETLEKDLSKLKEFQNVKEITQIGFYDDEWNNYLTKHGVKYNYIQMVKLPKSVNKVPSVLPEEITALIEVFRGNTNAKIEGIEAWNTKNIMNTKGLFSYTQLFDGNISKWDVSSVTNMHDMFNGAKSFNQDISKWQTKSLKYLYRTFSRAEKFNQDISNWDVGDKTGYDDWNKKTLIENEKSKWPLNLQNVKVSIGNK

Measured: binding result

B1: MCF2L2 promoter (+53 to +112) (dsDNA)
DNA 1: CAACTAACACTTTACGGGAGTGGGCACATCATTCCTGAATAAGGACACGCGCGTGCGCAC
DNA 2: GTGCGCACGCGCGTGTCCTTATTCAGGAATGATGTGCCCACTCCCGTAAAGTGTTAGTTG
binds: rMbovP475-265NQ266 | MbovP475∆DB3 | MbovP475∆DB2

B2: CRYAB promoter (+108 to +167) (dsDNA)
DNA 1: TCTCTTCCCAGCTTCTACTTCCCTGAGCCCCTTCTACCTTCGGCCGCCCTCATTTCTGCG
DNA 2: CGCAGAAATGAGGGCGGCCGAAGGTAGAAGGGGCTCAGGGAAGTAGAAGCTGGGAAGAGA
binds: rMbovP475-265NQ266 | MbovP475∆DB3 | MbovP475∆DB2
